Measured values as given in patent publication US20260098102A1 (NATIONAL UNIVERSITY CORPORATION KOBE UNIVERSITY, published 2026).

T1: monkey SIRPA protein (cynomolgus monkey, UniProt P78324 31-504 (human entry))
T1 construct: Expressed on 293α cells from pcDNA3.2 V5-DEST or pFLAG V5-DEST vectors; also called cynomolgus monkey SIRPA; cSIRPA
T1 chain: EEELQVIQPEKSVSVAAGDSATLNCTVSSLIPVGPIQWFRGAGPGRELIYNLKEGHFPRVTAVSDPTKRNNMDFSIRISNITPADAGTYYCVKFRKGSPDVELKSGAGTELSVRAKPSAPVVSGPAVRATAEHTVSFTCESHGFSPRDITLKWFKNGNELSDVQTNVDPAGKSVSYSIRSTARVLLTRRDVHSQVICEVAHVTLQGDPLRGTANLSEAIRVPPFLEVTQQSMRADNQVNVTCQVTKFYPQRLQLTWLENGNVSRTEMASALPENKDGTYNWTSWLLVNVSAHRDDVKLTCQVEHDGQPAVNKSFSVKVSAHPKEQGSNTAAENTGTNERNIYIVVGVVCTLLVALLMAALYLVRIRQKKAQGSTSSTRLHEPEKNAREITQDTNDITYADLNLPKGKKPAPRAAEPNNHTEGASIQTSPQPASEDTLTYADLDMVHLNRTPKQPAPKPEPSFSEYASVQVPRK

T2: mouse SIRPA_C57BL/6 (mouse (C57BL/6), UniProt P97797 32-513)
T2 construct: FLAG-tagged (pFLAG V5-DEST), on 293α cells
T2 sequence: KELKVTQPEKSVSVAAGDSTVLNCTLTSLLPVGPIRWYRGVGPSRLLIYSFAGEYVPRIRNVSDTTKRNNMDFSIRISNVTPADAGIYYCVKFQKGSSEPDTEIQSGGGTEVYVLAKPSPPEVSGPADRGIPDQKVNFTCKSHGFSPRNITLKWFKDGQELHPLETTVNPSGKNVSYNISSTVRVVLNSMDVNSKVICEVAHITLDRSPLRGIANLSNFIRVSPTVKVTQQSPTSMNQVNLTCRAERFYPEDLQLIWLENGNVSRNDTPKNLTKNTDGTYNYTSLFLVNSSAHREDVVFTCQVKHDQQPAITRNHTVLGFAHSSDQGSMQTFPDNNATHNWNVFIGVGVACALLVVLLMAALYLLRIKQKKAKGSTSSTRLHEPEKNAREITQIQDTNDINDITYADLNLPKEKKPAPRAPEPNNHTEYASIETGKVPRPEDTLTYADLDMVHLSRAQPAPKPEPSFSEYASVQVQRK


Key:
[1] = biological target: T3, human SIRPA_V5 (human, UniProt P78324 31-504); experiment: cell-based ELISA on 293α cells expressing FLAG-tagged SIRPA_V5; Abs 490 normalized to FLAG tag [i]
T3 construct: FLAG-tagged (pFLAG V5-DEST), on 293α cells; also called human SIRPA Variant 5
Description: (§1) The 293a cells, described in Example 1)-6, were prepared at 5× 10⁵ cells/mL in a 10% FBS-containing DMEM medium. pFLAG V5-DEST-SIRPA_V1-V10, pFLAG V5-DEST-monkey SIRPA, pFLAG V5-DEST-mouse SIRPA, or pFLAG V5-DEST was introduced into the cells using Lipofectamine LTX (Invitrogen), and 100 μL each was aliquoted to a 96-well plate (Corning Incorporated) and cultured overnight in a 10% FBS-containing DMEM medium at 37° C. under a 5% CO₂ condition. The obtained introduced cells were used for cell-based ELISA in a state that they adhered. After the culture supernatant was removed, 50 μL per well of hD13_HIL3, hD13_HIL4h, hD13_H2L2, hD13_H2L3, or cD13 prepared in Examples 6 and 7 or a control antibody was added to each of various SIRPA genes-introduced cells at a final concentration of 0 to 10,000 ng/ml, and the mixture was allowed to stand at 4° C. for one hour. Thereafter, binding to human SIRPA was evaluated in the same manner as in Example 5-1.

[2] = biological target: T1, monkey SIRPA protein; experiment: blocking cell-based ELISA: peroxidase-labeled CD47-Fc (1 µg/mL) on 293α cells expressing monkey SIRPA; y axis = CD47-Fc signal relative to no antibody (100)
Description: After the culture supernatant of human SIRPA or monkey SIRPA expression vector-introduced 293α cells prepared in Example 8)-1 was removed, 50 μL per well of hD13_HIL3, hD13_HIL4h, hD13_H2L2, or hD13_H2L3 diluted with 5% FBS-containing PBS to a final concentration of 0 to 10,000 ng/ml was added to each of pcDNA3.2 V5-DEST-SIRPA_V1, pcDNA3.2 V5-DEST-SIRPA_V2, pcDNA3.2 V5-DEST-monkey SIRPA, and pcDNA3.2 V5-DEST-introduced 293α cells, immediately followed by addition of peroxidase-labeled CD47-Fc prepared with 5% FBS-containing PBS at 1 μg/mL, and the mixture was allowed to stand at 4° C. for one hour. Thereafter, the SIRPA-CD47 binding inhibitory activity was evaluated in the same manner as in 1)-6-3.

[3] = biological target: T2, mouse SIRPA_C57BL/6; experiment: cell-based ELISA on 293α cells expressing FLAG-tagged mouse SIRPA (C57BL/6); Abs 490 normalized to FLAG tag [i]
Description: as §1

[4] = biological target: T4, human SIRPA_V2 protein (human, UniProt P78324 31-504); experiment: cell-based ELISA on 293α cells expressing FLAG-tagged SIRPA_V2; Abs 490 normalized to FLAG tag [ii]
T4 construct: Expressed on 293α cells from pcDNA3.2 V5-DEST or pFLAG V5-DEST (FLAG-tagged) vectors; also called human SIRPA Variant 2; ECD variant (full-length, amino acids 1 to 504)
Description: as §1

T3 sequence (P78324 other isoform, or with tags, fused parts or gaps limits assumed): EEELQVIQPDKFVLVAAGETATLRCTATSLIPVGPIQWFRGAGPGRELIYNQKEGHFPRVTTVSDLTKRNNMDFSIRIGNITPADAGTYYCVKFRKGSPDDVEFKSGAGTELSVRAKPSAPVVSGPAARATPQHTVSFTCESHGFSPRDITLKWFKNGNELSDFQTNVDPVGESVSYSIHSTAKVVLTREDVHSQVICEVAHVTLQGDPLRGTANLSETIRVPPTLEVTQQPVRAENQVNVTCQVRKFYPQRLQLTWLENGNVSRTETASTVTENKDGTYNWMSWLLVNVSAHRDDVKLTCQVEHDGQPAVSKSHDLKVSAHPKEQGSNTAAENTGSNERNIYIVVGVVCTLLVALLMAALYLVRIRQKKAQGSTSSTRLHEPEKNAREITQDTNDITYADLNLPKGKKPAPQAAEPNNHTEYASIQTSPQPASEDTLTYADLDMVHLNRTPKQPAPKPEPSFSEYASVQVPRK

| Binder | EC50 (read off the curve) [1] | IC50 (read off the curve) [2] | binding result [3] | EC50 (read off the curve) [4] |
| --- | --- | --- | --- | --- |
| humanized anti-SIRPA antibody hD13_H1L3 (antibody, human IgG4 S228P, kappa, F234A L235A, V domains shown, hH1 heavy chain (IgG4proFALA) and hL3 kappa light chain; also called hD13_HIL3; HIL3 antibody) VH: QVQLVESGGGVVQPGRSLRLSCAASGFTFSDYGMIWVRQAPGKGLEWVASISSSSSYIYYADSVKGRFTISRDNSKNRLYLQMNSLRAEDTAVYYCARRYYGFNYPFDYWGQGTMVTVSS VL: DTQLTQSPSSLSASVGQRVTITCGASKSVRTYMHWYQQKPGKQPKLLIYSASNLEAGVPSRFSGSGSGTDFTLTISSLQPEDFATYYCQQSNEPPYTFGQGTKLEIKR | ~0.04 µg/mL | ~0.6 µg/mL | no binding (tested: 10000 ng/mL) | ~0.03 µg/mL |
| humanized anti-SIRPA antibody hD13_H2L2 (antibody, human IgG4 S228P, kappa, F234A L235A, V domains shown, hH2 heavy chain (IgG4proFALA) and hL2 kappa light chain; also called H2L2 antibody) VH: EVQLVESGGGVVQPGRSLRLSCAASGFTFSDYGMIWVRQAPGKGLEWVASISSSSSYIYYADSVKGRFTISRDNSKNTLYLQMNSLRAEDTAVYYCARRYYGFNYPFDYWGQGTMVTVSS VL: AIQLTQSPSSLSASVGQRVTITCGASKSVRTYMHWYQQKPGKAPKLLIYSASNLEAGVPSRFSGSGSGTDFTLTISSLQPEDFATYYCQQSNEPPYTFGQGTKLEIKR | ~0.04 µg/mL | ~0.9 µg/mL | no binding (tested: 10000 ng/mL) | ~0.03 µg/mL |
| humanized anti-SIRPA antibody hD13_H2L3 (antibody, human IgG4 S228P, kappa, F234A L235A, V domains shown, hH2 heavy chain (IgG4proFALA) and hL3 kappa light chain; also called H2L3 antibody) VH: EVQLVESGGGVVQPGRSLRLSCAASGFTFSDYGMIWVRQAPGKGLEWVASISSSSSYIYYADSVKGRFTISRDNSKNTLYLQMNSLRAEDTAVYYCARRYYGFNYPFDYWGQGTMVTVSS VL: DTQLTQSPSSLSASVGQRVTITCGASKSVRTYMHWYQQKPGKQPKLLIYSASNLEAGVPSRFSGSGSGTDFTLTISSLQPEDFATYYCQQSNEPPYTFGQGTKLEIKR | ~0.04 µg/mL | ~0.8 µg/mL | no binding (tested: 10000 ng/mL) | ~0.03 µg/mL |

Now from value to binder:

| EC50 (read off the curve) [1] | IC50 (read off the curve) [2] | binding result [3] | EC50 (read off the curve) [4] | Binder |
| --- | --- | --- | --- | --- |
| ~0.04 µg/mL | ~0.9 µg/mL | no binding (tested: 10000 ng/mL) | ~0.03 µg/mL | human chimeric anti-SIRPA antibody cD13 (antibody, human IgG4 S228P, kappa, F234A L235A, V domains shown, Human IgG4proFALA heavy chain, human kappa light chain; also called cD13 (IgG4pf); human chimeric antibody D13) VH: EVQLVESGGGLVQPGRSLKLSCLASGFTFSDYGMIWVRQAPGKGLEWVASISSSSSYIYYADTVKGRFTISRENAKNTLFLHMTSLRSEDTALYYCARRYYGFNYPFDYWGQGVMVTVSS VL: DTVLTQSPALAVSLGQRVTISCGASKSVRTYMHWYQQKSGQQPKLLIYSASNLEAGVPSRFSGSGSGTDFTLTIDPVEADDIANYYCQQSNEPPYTFGAGTKLELKR |
| ~0.04 µg/mL | ~1 µg/mL | no binding (tested: 10000 ng/mL) | ~0.03 µg/mL | humanized anti-SIRPA antibody hD13_H1L4 (antibody, human IgG4 S228P, kappa, F234A L235A, V domains shown, hH1 heavy chain (IgG4proFALA) and hL4 kappa light chain; also called hD13_HIL4; hD13_HIL4h) VH: QVQLVESGGGVVQPGRSLRLSCAASGFTFSDYGMIWVRQAPGKGLEWVASISSSSSYIYYADSVKGRFTISRDNSKNRLYLQMNSLRAEDTAVYYCARRYYGFNYPFDYWGQGTMVTVSS VL: DTVLTQSPDSLAVSLGQRATINCGASKSVRTYMHWYQQKPGQQPKLLIYSASNLEAGVPSRFSGSGSGTDFTLTISSLQAEDVAVYYCQQSNEPPYTFGQGTKVEIKR |
